This is an account of results in patent publication US20180119166.

This data set deals with T1, MBP fusion protein of the carboxyl-terminal domain of Gle1 (MBP-Gle1C; amino acid residues 244-611).
T1 chain: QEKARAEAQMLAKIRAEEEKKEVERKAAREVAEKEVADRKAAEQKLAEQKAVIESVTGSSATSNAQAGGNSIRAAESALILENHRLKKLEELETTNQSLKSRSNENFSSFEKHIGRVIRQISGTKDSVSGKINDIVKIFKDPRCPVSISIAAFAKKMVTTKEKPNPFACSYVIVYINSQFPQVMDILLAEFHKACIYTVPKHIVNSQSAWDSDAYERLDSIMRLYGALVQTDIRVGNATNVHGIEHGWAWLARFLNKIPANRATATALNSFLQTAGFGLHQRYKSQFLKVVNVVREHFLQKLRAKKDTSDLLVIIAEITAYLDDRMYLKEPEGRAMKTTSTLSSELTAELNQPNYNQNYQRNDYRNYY

B1: 6x-histidine-fused LOS4 (LOS4-His) (protein)
chain: MADTVEKVPTVVESSSSSTVEASNSAEKTEPTTEKKKWGDVEDDDDEEEAVSELNSLSIKEEEKPDSILEEPEDSNIKAVTSGDTPYTSASRFEDLNLSPELMKGLYVEMKFEKPSKIQAISLPMIMTPPHKHLIAQAHNGSGKTTCFVLGMLSRVDPTLREPQALCICPTRELANQNMEVLQKMGKFTGITAELAVPDSTRGAPAATRGAPVSAHVVIGTPGTLKKWMAFKRLGLNHLKILVFDEADHMLATDGFRDDSLKIMKDIGRVNPNFQVLLFSATFNETVKDFVARTVKDPNQLFVKREDLALDSVKQYKVVCPKEQNKIEVIKDQIMELGDIGQTIIFVKTKASAQKVHKALAEMGYDVTSVHGNLTESDRDKIVKEFKECLTQVLIATDVIARGFDQQRVNLVVNYNLPTKYETGEPDYEVYLHRVGRAGRFGRKGAVFNLLLDDGWDKEVMEKIEKYFEANVKEIKSWNSEEEYKSALKEAGLLDEHHHHHH
Turning to B1, the “apparent kcat of LOS4-His with MBP-Gle1C (2 µM MBP-Gle1C, 1 µM LOS4-His)” value is “the apparent kcat values for LOS4-His alone and LOS4-His with MBP-Gle1C were calculated to be 0.267 and 0.565 sec^-1, respectively”; the “fold increase in the overall catalytic rate of LOS4 (kcat against LOS4-His alone, 0.267 sec^-1)” value was “an approximately two-fold increase in the overall catalytic rate of LOS4 by Gle1”.
